Test results from the RNAGym collection of RNA variant scans (doi:10.1093/molbev/msab373).

B1: Azoarcus group I ribozyme (parent)
chain: GUGCCUUGCGCCGGGAAACCACGCAAGGGAUGGUGUCAAAUUCGGCGAAACCUAAGCGCCCGCCCGGGCGUAUGGCAACGCCGAGCCAAGCUUCGGCGCCUGCGCCGAUGAAGGUGUAGAGACUAGACGGCACCCACCUAAGGCAAACGCUAUGGUGAAGGCAUAGUCCAGGGAGUGGCGAAAGUCACACAAACCGG

Variants of: B1
Test: reverse-splicing fitness (ratio to wild type); higher = more active; in vitro selection; Mg2+ level not given
In short: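 An in vitro group I ribozyme library with randomized positions was T7-transcribed and gel-purified. In triplicate, 10 pmol RNA in EPPS pH 7.5 was reacted with 50 pmoles of a 30-nt RNA substrate for 1 h at 37 °C across several added MgCl2 levels (1–48 mM), then stopped with EDTA. Products were reverse transcribed from a substrate-complementary primer, PCR-amplified and sequenced (HiSeq 4000). Fitness is a variant's read proportion after selection over that before, normalised to wild type.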

**Q.** For A111G A120C C150U C169U U176G, which reverse-splicing fitness is on record?
**A.** 0.00603

**Q.** With A111G A120C C150U C169U U176A as the variant, how does the reverse-splicing fitness read?
**A.** 0.0417

**Q.** Which reverse-splicing fitness does the source give for A111G A120C C150U C169U U176C here?
**A.** 0.0445

**Q.** For A111G A120C A145U C150U C169A U176A, which reverse-splicing fitness is on record?
**A.** 0.0122

**Q.** With A111G A120C A145U C150U C169A U176G as the variant, how does the reverse-splicing fitness read?
**A.** 0.00393

**Q.** For A111G A120C A145U C150U C169A U176C, which reverse-splicing fitness is on record?
**A.** 0.00821

**Q.** With A111G A120G A145U C150G C169G as the variant, how does the reverse-splicing fitness read?
**A.** 0.0297

**Q.** With A111G A120G A145U C150G C169A as the variant, how does the reverse-splicing fitness read?
**A.** 0.0193

**Q.** Which reverse-splicing fitness does the source give for A111G A120G A145U C150G C169U here?
**A.** 0.0301

**Q.** For A111G A120G A145U C169A, which reverse-splicing fitness is on record?
**A.** 0.174

**Q.** For A111G A120G A145U C169U, which reverse-splicing fitness is on record?
**A.** 0.232

**Q.** For A111G A120G A145U C169G, which reverse-splicing fitness is on record?
**A.** 0.33

**Q.** With A111G A120G A145U C169G U176C as the variant, how does the reverse-splicing fitness read?
**A.** 0.106

**Q.** With A111G A120G A145U C169G U176G as the variant, how does the reverse-splicing fitness read?
**A.** 0.00712

**Q.** With A111G A120G A145U C169G U176A as the variant, how does the reverse-splicing fitness read?
**A.** 0.0761

**Q.** For A111G A120G A145C C150G C169G U176C, which reverse-splicing fitness is on record?
**A.** 0.00653

**Q.** Which reverse-splicing fitness does the source give for A111G A120G A145C C150G C169G U176G here?
**A.** 0.00389

**Q.** Which reverse-splicing fitness does the source give for A111G A120G A145C C150G C169G U176A here?
**A.** 0.0101

**Q.** Which reverse-splicing fitness does the source give for A111G A120C C150G C169U U176G here?
**A.** 0.0044

**Q.** For A111G A120C C150G C169U U176C, which reverse-splicing fitness is on record?
**A.** 0.0152

**Q.** With A111G A120C C150G C169U U176A as the variant, how does the reverse-splicing fitness read?
**A.** 0.00767

**Q.** Which reverse-splicing fitness does the source give for A111G A120G A145C U176G here?
**A.** 0.00892

**Q.** Which reverse-splicing fitness does the source give for A111G A120G A145C U176A here?
**A.** 0.0723

**Q.** Which reverse-splicing fitness does the source give for A111G A120G A145C U176C here?
**A.** 0.104

**Q.** With A111G A120G A145G C150A as the variant, how does the reverse-splicing fitness read?
**A.** 0.0452

**Q.** For A111G A120G A145G C150G, which reverse-splicing fitness is on record?
**A.** 0.0366

**Q.** With A111G A120G A145G C150U as the variant, how does the reverse-splicing fitness read?
**A.** 0.244

**Q.** For A111G A120C C150G U176A, which reverse-splicing fitness is on record?
**A.** 0.0119

**Q.** For A111G A120C C150G U176G, which reverse-splicing fitness is on record?
**A.** 0.00371

**Q.** With A111G A120C C150G U176C as the variant, how does the reverse-splicing fitness read?
**A.** 0.036

**Q.** With A111G A120C C169G as the variant, how does the reverse-splicing fitness read?
**A.** 0.0129

**Q.** Which reverse-splicing fitness does the source give for A111G A120C C169U here?
**A.** 0.271

**Q.** For A111G A120C C169A, which reverse-splicing fitness is on record?
**A.** 0.0146

**Q.** With A111G A120G A145U C150G C169U U176G as the variant, how does the reverse-splicing fitness read?
**A.** 0.00442

**Q.** Which reverse-splicing fitness does the source give for A111G A120G A145U C150G C169U U176C here?
**A.** 0.0171

**Q.** Which reverse-splicing fitness does the source give for A111G A120G A145U C150G C169U U176A here?
**A.** 0.0148

**Q.** Which reverse-splicing fitness does the source give for A111G A120G A145C here?
**A.** 0.266

**Q.** Which reverse-splicing fitness does the source give for A111G A120G A145G here?
**A.** 0.285

**Q.** Which reverse-splicing fitness does the source give for A111G A120G A145U here?
**A.** 0.274

**Q.** With A111G A120C A145U C150G C169G U176G as the variant, how does the reverse-splicing fitness read?
**A.** 0.00416

**Q.** For A111G A120C A145U C150G C169G U176A, which reverse-splicing fitness is on record?
**A.** 0.00655

**Q.** With A111G A120C A145U C150G C169G U176C as the variant, how does the reverse-splicing fitness read?
**A.** 0.00451

**Q.** With A111G A120G A145G C150U C169G as the variant, how does the reverse-splicing fitness read?
**A.** 0.255

**Q.** With A111G A120G A145G C150U C169A as the variant, how does the reverse-splicing fitness read?
**A.** 0.131

**Q.** With A111G A120G A145G C150U C169U as the variant, how does the reverse-splicing fitness read?
**A.** 0.2

**Q.** Which reverse-splicing fitness does the source give for A111G A120C C169A U176A here?
**A.** 0.0147

**Q.** With A111G A120C C169A U176C as the variant, how does the reverse-splicing fitness read?
**A.** 0.0167

**Q.** With A111G A120C C169A U176G as the variant, how does the reverse-splicing fitness read?
**A.** 0.00421

**Q.** For A111G A120C A145U C169A, which reverse-splicing fitness is on record?
**A.** 0.0133

**Q.** For A111G A120C A145U C169G, which reverse-splicing fitness is on record?
**A.** 0.0128

**Q.** With A111G A120C A145U C169U as the variant, how does the reverse-splicing fitness read?
**A.** 0.262

**Q.** With A111G A120G A145C C150G C169U as the variant, how does the reverse-splicing fitness read?
**A.** 0.0356

**Q.** With A111G A120G A145C C150G C169G as the variant, how does the reverse-splicing fitness read?
**A.** 0.0368

**Q.** Which reverse-splicing fitness does the source give for A111G A120G A145C C150G C169A here?
**A.** 0.0226

**Q.** Which reverse-splicing fitness does the source give for A111G A120G A145G C169A U176G here?
**A.** 0.00474

**Q.** With A111G A120G A145G C169A U176A as the variant, how does the reverse-splicing fitness read?
**A.** 0.0489

**Q.** With A111G A120G A145G C169A U176C as the variant, how does the reverse-splicing fitness read?
**A.** 0.0746

**Q.** Which reverse-splicing fitness does the source give for A111G A120G A145G U176G here?
**A.** 0.00937

**Q.** For A111G A120G A145G U176C, which reverse-splicing fitness is on record?
**A.** 0.12

**Q.** Which reverse-splicing fitness does the source give for A111G A120G A145G U176A here?
**A.** 0.0808

**Q.** Which reverse-splicing fitness does the source give for A111G A120G A145G C169U U176G here?
**A.** 0.00896

**Q.** For A111G A120G A145G C169U U176A, which reverse-splicing fitness is on record?
**A.** 0.0849

**Q.** Which reverse-splicing fitness does the source give for A111G A120G A145G C169U U176C here?
**A.** 0.0954

**Q.** For A111G A120G A145C C150G U176A, which reverse-splicing fitness is on record?
**A.** 0.014

**Q.** For A111G A120G A145C C150G U176C, which reverse-splicing fitness is on record?
**A.** 0.0228

**Q.** With A111G A120G A145C C150G U176G as the variant, how does the reverse-splicing fitness read?
**A.** 0.00289

**Q.** For A111G A120C C150U U176A, which reverse-splicing fitness is on record?
**A.** 0.314

**Q.** With A111G A120C C150U U176G as the variant, how does the reverse-splicing fitness read?
**A.** 0.0682

**Q.** Which reverse-splicing fitness does the source give for A111G A120C C150U U176C here?
**A.** 0.337

**Q.** With A111G A120C A145U C169G U176A as the variant, how does the reverse-splicing fitness read?
**A.** 0.00894

**Q.** For A111G A120C A145U C169G U176C, which reverse-splicing fitness is on record?
**A.** 0.00882

**Q.** Which reverse-splicing fitness does the source give for A111G A120C A145U C169G U176G here?
**A.** 0.0045

**Q.** With A111G A120C A145U C150A C169G U176C as the variant, how does the reverse-splicing fitness read?
**A.** 0.011

**Q.** For A111G A120C A145U C150A C169G U176A, which reverse-splicing fitness is on record?
**A.** 0.0144

**Q.** For A111G A120C A145U C150A C169G U176G, which reverse-splicing fitness is on record?
**A.** 0.00393

**Q.** Which reverse-splicing fitness does the source give for A111G A120G A145U C150A here?
**A.** 0.0301

**Q.** With A111G A120G A145U C150G as the variant, how does the reverse-splicing fitness read?
**A.** 0.0319

**Q.** Which reverse-splicing fitness does the source give for A111G A120G A145U C150U here?
**A.** 0.19

**Q.** With A111G A120G A145U C169U U176A as the variant, how does the reverse-splicing fitness read?
**A.** 0.0839

**Q.** With A111G A120G A145U C169U U176C as the variant, how does the reverse-splicing fitness read?
**A.** 0.093

**Q.** With A111G A120G A145U C169U U176G as the variant, how does the reverse-splicing fitness read?
**A.** 0.0103

**Q.** For A111G A120C C169G U176G, which reverse-splicing fitness is on record?
**A.** 0.00351

**Q.** Which reverse-splicing fitness does the source give for A111G A120C C169G U176A here?
**A.** 0.0158

**Q.** Which reverse-splicing fitness does the source give for A111G A120C C169G U176C here?
**A.** 0.0183
